Test: label from the status in PepcDB records

| Sequence | protein production |
| --- | --- |
| MGFFSRDIQTMEDLLLHGLRDIYYAEQQITKALPKMIEQATNRDLSQGLTSHLEETQKQIERLDQVFKKLGQKPSGVNCPAIDGLIKEADETAGEIADKTVLDAAIVANAQAVEHYEIARYGTLIAWAEELGHDDIVRFLTTNLNEEKAANTKLNTVALRKGVNRKAAS | not failed |
| MGFIGSGSIGGTIARLAVAAGHQVVLSNSRGPGSLADTVAELGPRASAATSEEAAAAGDIVVVTVPVTAFPDLPAAPLAGKTVIDTCNYGPERDGHIPELDGTSLTSSELLLRYVPGAMLVKGFNNIYFKHLLSLARPAGATDRSYLPIAGDLAPAKAAATEFIDSIGYGVVDAGLLADSWRQATGTPVWGTPYGPPSNEMGRPTGPGAIRAALATATR | failed |
| MGFIVFCLIAYFVISHLSNKKDVSGNKANSNCPYCNAAFYLTENGDFNCSNCGRLFKYRDGIVYRQDERLPIVVELACTLFTILCKADGVVTKDEVSITKELLEKNFGLEDKDMKMAIDILNKSKSKPYTKTIINDLNNIFNNYDFSKTDAEDYKELILRCAMIIAFCDDGEPSNNQNKILDDIVSIFNISATKYTNLLNYFRDNCIEKNKNDYYEILGVSEGASKEEIRAAFRKLSKLYHPDRYSSKDLPPEIIKEFEEKLAKIIEAYEALK | failed |
| MGFLQRISLMITSLIILHTIPSTTSISITPDAPTMILIDSICVNTKNMYYCEQSIISKLGNPHAEIKTIADIAAFNAVYLITSAGNYIRDKFIPIAENPLVKNQLVLCLATYRAVQKLLEGAYLADRRGDYSDMRHYQSSVLGMLDNCKTDFDYMVRTNWGVRLMINISLLATRQLPAQ | failed |
| MGFPKLETERLQLRELTLLDAETMFHYFSKESVIRYFGMDSFENIEQAKTTIQTFKNRYEEGSVFRWGIEKKGTGQLIGTCGFHLINHHHKRAEIGYELDDTYWGQGYASEALQAILTYGFETLQLIRIAAVVYVENKASQKLLSKAGFQEEGLLRKHMIQNGVAHDTILYSLLKEEWKK | failed |
| MGGAVLAQPPGPTPTDGVPLRSSQPAVQVEPAPTTATAAPIERLFPKLTGRVVDTAQLLTPSAQVYLAQMLERLEQTTTDQVVVATVPSLGGHSIEEFGLQLGRHWGIGRKDKNNGVLLLVAKDDRKVRIEVGYGLEGRLNDIVAHFIIDGSIIPYFKDDLYSSGIIAGATSIVSVLSSTDRPMLVYRSVEKNWYQDIEWMWWFERLFYLVFVGVPLFGFLTQWRSGDDSPVVASGDSARRETRAERDTGSSSSAFDWFDSSSSSSSSSSDSFSGGGGSFGGGGASGSW | failed |
| MGGCPVRKRRRNGSKEGNHHSTQPKRNKRNPIFQDSQDTEFSWSDNERSSSRINIPERASGPEGNLNQIVTEPDANFPQFLHEGLSKPVYVINWFMSFGPEIKLNTSQQGRNQAV | failed |
| MGGDKIDLYKRFSILFCTIFLLLILQGTVAAESNYTVDYSTYLGDKVVDEARDVYVDDSGYIYVTGSTHVNGSKDVFVTKFNVTREVIYHTILTDTSGDDWGHRIVADGDGYAYVVGEINHDGLKVADAFISKIDPSGKEVKRVYIGGSGYDVAKGLAIDYEGNIYVSGYTISTVLNVSELGGGTARVPGTNPNATPLTDWTYHGGYDAFLARFDQDLNPVNLRYFGGSWDDYCQGIAIDYAGNIYITGYTYSDDFPVTFDAISGDKRGTTDIFLSRFTPDLNCDYSTYLGGSGPDFCYSIISRDSRIYLAGKTNSSDFPVTPNAYQKTRNGSSDGFIMVFNDYSVEYSTYLGGRGDDSINDITQDILGNLYLTGWTGSDNFPLTPGAYDSSLSGVDAFVMKFSIPKGVLYSSYLGGIEADQGYGVAVDRYQNIYVAGKTWSSNFTVTPDACKKNLTGLSDGFLTRFTPFIISNISVTPLNGTGPLTVTLRGNITNCGDSTGWYRLDLYINGYRTAGKWVEVGSLETEPFEFEYTLRNSRAYSVGVNNFPPATVRVFLGPLIIPENLRVTPSGGQEPLKVNVTADLVNYGDLPDSYTAELYIDGVLLDSRNVTVNASSRTTVSFNRTLAAGLYEITINDLEPELVYVMEGEKFYIENFTLTPQSGAAPLTVTVSAMITNIDSNPRSYTATIYVNGVPDHTKVLNIPGESTVPFSTSILLPDRGLYTISLNNNVSGTVRVLSEANFTLSNVTVSPVEGKSPLNVTVTAIVRNNGDLAGDFAVTLYLDDVAWETRTVSVPGKSSVLVSFKKELAFPGEYRLRLNSGTDVTIRVLEPDPTITGFNVTPVTGPAPLSVRASLNVTNPHDLVIGFTARLMVDGVVVQENIVSLSPGETREIAMGTLLTPGNHTVGINEFSKIVRVLRPASITLSDLRVTPSSGFSPLTITATATARNTGEVDGNYTAVLYINGLAVDEKNVTVGAGRSVQVAFNHTIENAGIYLAGIGSLTPLDVRVLSEPAISNLSATPLTGVSPHRIIVTALVSTTEEGSGNYTAGLYIDGVNVQNRTVRVTGPGSVLVSFTADISEPGEHQVTVNSLSPVTVRVLRPATFIVDSLTVSPSTGVIPFRVNASVRVTNIGDIAGNYTARLYIDGVNVQNRTVNVPAGGDVTVSFTYNITQRGNHTVWIDNPPGINVNALKPATLEIRSFSVTPGSAVGSVNANVSAEIENSGDLEGEFSIPFYLNGSLIRNETIRLGPGERGNINFQQYLSGPGVYTFSLGNLRNSTVYVNPARRKYSFTFRNTGKYTTTVTYYVTVYSSTGAKLGYRTFKFTLKPGRSYSATIGYYPYDARIVTTRKIYNPSRYTRTIKLSETFRADTLSATLNYSNTIRGYRYVYIKKTFRAVNMRITVT | failed |
| MGGEASPRSLQDWRHVHNTIIPAHVLSLDDVRERAGRNRLEVAYLDDVLVGCSTVRPPADAPTPDAPATATVIARVLAAHRGRGFGGEMYERGLKHARALGAQVIETVVLSSNPDGLRFALKHGFAETERYLLPGDTVPWIDLRLSV | failed |
| MGGGEVKMMSLLEEMKGIYSKKGGKVKPFEKFEGELKEGYRFEYEKKLCEIDVAMFGLISGDLNPVHFDEDFASKTRFGGRVVHGMLTTSLVSAAVARLPGTVVLLEQSFRYTSPVRIGDVVRVEGVVSGVEKNRYTIDVKCYTGDKVVAEGVVKVLIW | not failed |
| MGGITITAVISNRDKVTFGEVADHYHSNKLIFGLKYFKNWVLERVAAWFPIPSWRAKFHKMRGVNLGKNVYVGYDVVFDRLHPEMITVGDYSEIGDRCILSAHSRGSLTTRQAYPRTIEPIKIGCGVSVNPGCIITQGVEIGDNSIIGIGSVVTRDISPNSLALGYPARVIKKLDGVGELQTSFNDT | failed |
| MGGRIASLLLDELHASTTVAAGVCLGYPFHPLGKPAQLRTHHLIDLSAPCLIFQGERDAMGRQDEVEVYSMSSAVTLQWIPDGDHSFSPRKRSGRTEEQNLCLAVQHVHSFLDSV | failed |
| MGHHHHHHSHGIVPGSVVLMAGEPGVGKSTLLLEVASRWASMKEGDGTRTALYVTAEESAGQVRLRAERTAAVKDTLYLAAESNLDVVFGHVNQVKPSLLIVDS | failed |
| MGHHHHHHSHGYLLKPEFMRRPDKSFDPFTEVIVDGIVANALRVKVISGQFLSDRKVGIYVEVDMFGLPVDTRRKYRTRTSQGNSFNPVWDEEPFDFPKVVLPTLASLRIAAFEEGGKFVGHRILPVSAIRSGYHYVCLRNEANQPLCLPALLIYTEASDYIPDDHQDYAEALINPIKHVSLMDQRARQLAALIG | failed |
| MGHHHHHHSHMACYIYQLPSWVLDDLCRNMDALSEWDWMEFASYVITDLTQLRKIKSMERVQGVSITRELLWWWGMRQATVQQLVDLLCRLELYRAAQIILNWKPAPEIRCPIPAFPDSVK | failed |
| MGHHHHHHSHMADVEDGEETCALASHSGSSGSKSGGDKMFSLKKWNAVAMWSWDVECDTCAICRVQVMDACLRCQAENKQEDCVVVWGECNHSFHNCCMSLWVKQNNRCPLCQQDWVVQRIGK | failed |
| MGHHHHHHSHMAGPSNVPAFLTKLWTLVSDPDTDALICWSPSGNSFHVFDQGQFAKEVLPKYFKHNNMASFVRQLNMYGFRKVVHIEQGGLVKPERDDTEFQHPCFLRGQEQLLENIKRKVTSVS | not failed |
| MGHHHHHHSHMAILIAFMKQRRMGLNDFIQKIANNSYACKHPEVQSILKISQPQEPELMNANPSPPPSPSQQINLGPSSNPHAKPSDFHFL | failed |
| MGHHHHHHSHMARPLVPSSQKALLLELKGLQEEPVEGFRVTLVDEGDLYNWEVAIFGPPNTYYEGGYFKARLKFPIDYPYSPPAFRFLTKMWHPNIYETGDVCISILHPPVDDPQSGELPSERWNPTQNVRTILLSVISLLNEPNTFSPANVDASVMYRKWKESKGKDREYTDIIRKQVLGTKVDAERDGVKVPTTLAEYCVKTKAPAPDEGSDLFYDDYYEDGEVEEEADSCFGDDEDDSGTEES | failed |
| MGHHHHHHSHMATGEEVPRTIIVTTRSQYGLPEDAIVYCNFNQLYKIDPSTLQMWANILKRVPNSVLWLLRFPAVGEPNIQQYAQNMGLPQNRIIFSPVAPKEEHVRRGQLADVCLDTPLCNG | failed |
| MGHHHHHHSHMATSSQYRQLLSDYGPPSLGYTQGTGNSQVPQSKYAELLAIIEELGKEIRPTYAGSKSAMERLKRGIIHARGLVRECLAETERNARS | not failed |
| MGHHHHHHSHMDTPENVLQMLEAHMQSYKGNDPLGEWERYIQWVEENFPENKEYLITLLEHLMKEFLDKKKYHNDPRFISYCLKFAEYNSDLHQFFEFLYNHGIGTLSSPLYIAWAGHLEAQGELQHASAVLQRGIQNQAEPREFLQQQYRLFQTRLTETHLPAQAR | failed |
| MGHHHHHHSHMHGWTWSVPKFMKRMKVPDYKDKAVFGVPLIVHVQRTGQPLPQSIQQALRYLRSNCLDQVGLFRKSGVKSRIHALRQMNENFPENVNYEDQSAYDVADMVKQFFRDLPEPLFTNKLSETFLHIYQYVSKEQRLQAVQAAILLLADENREVLQTLLCFLNDVVNLVEENQMTPMNLAVCLAPSLFHLNLL | failed |
| MGHHHHHHSHMKKDPTLQQAHDTMRFFRRGGSLRMLLDDDVTQPLNTVYRYAMQLMEVKEFAGAARLFQLLTIYDAWSFDYWFRLGECCQAQKHWGEAIYAYGRAAQIKIDAPQAPWAAAECYLACDNVCYAIKALKAVVRICGEVSEHQILRLRAEKMLQQLSDRS | failed |
| MGHHHHHHSHMNSTECTLILTEGDSAKTLAVSGLGVVGRDKYGVFPLRGKILNVREASHKQIMENAEINNIIKIVGLQYKKNYEDEDSLKTLRYGKIMIMTDQDQDGSHIKGLLINFIHHNWPSLLRHRFLEEFITPIVKVSKNKQEMAFYSLPEFEEWKSSTPNHKKWKVKYYKGLGTSTSKEAKEYFADMKRHRIQFKYSGPEDDAAISLAFSKKQIDDRKEWLTNFMEDR | failed |
| MGHHHHHHSHMPLVKRNIDPRHLCHTALPRGIKNELECVTNISLANIIRQLSSLSKYAEDIFGELFNEAHSFSFRVNSLQERVDRLSVSVTQLDPKEEELSLQDITMRKAFRSSTIQDQQLFDRKTLPIPLQETYDVCEQPPPLNILT | not failed |
| MGHHHHHHSHMQFFLPDATATHQFGVLLGQRLLASSTLLLEGDLGSGKTTLTQGIAQGLGIPDVVASPTFTLVCEYSEGRLPLYHFDLYRLEAPDVARLLPELYWEGVEFEPGLVVIEWPERLPYRPAAYWSLVLTPSLELEGRQLVLTPVNQDPTTVANLEVQLAAQFRARPATAES | not failed |
| MGHHHHHHSHMSNPIQAEVLKRVAEVFDQHVPFHNLLGLDIKRYDIDGVEVAINMKPELIGNIHQQILHGGVTATVLDVVGGLTAFAGLVASRDDWTIEELQQRLQTLGTIDMRVDYLRPGRGQIFTGTGSVIRAGNRVSVCRMELHNEQGTHIAFGTGTYMVG | not failed |
| MGHHHHHHSHMSTSLTGKPGALPANLDDMKVAELKQELKLRSLPVSGTKTELIERLRAYQDQISPVPGAPKAPAA | failed |
| MGHHHHHHSHMTENDLASLFNNSALFKALGFNIIEINDDAIVMEINDDNPCHQGGFGVLTSLGINGAVISAALESAIGLCGFNALGREPAGVVELSVKILRVIRKKPCRVEARVDNKNNNVAFISATLISARGGICATGTGIVLKSKTTEATQ | not failed |

From a protein production outcome set (Wang et al. 2014)
